# Measurements as given in article doi:10.1101/2022.03.05.483071.
# Molecular target: KIF5A ΔExon27-GFP (human) (UniProt Q12840)
# Assay: single-molecule TIRF microscopy, fluorescence intensity of moving spots
substance,measurement,value
KIF5A ΔExon27-GFP (from UniProt Q12840 1-998) (natural protein),percent of moving spots that are a single dimer,25%
